According to patent US20250340654A1 (INTERVET, published 2025):

T1: Canine IL-31RA ECD-10His (canine, biotin-labeled in the Octet assay (site not stated))
T1 construct: The ELISA and Octet protocols say only 'IL-31RA' or 'canine IL-31RA'; also called cIL-31RA; canine IL-31 receptor alpha extracellular domain, HIS-tagged
T1 chain: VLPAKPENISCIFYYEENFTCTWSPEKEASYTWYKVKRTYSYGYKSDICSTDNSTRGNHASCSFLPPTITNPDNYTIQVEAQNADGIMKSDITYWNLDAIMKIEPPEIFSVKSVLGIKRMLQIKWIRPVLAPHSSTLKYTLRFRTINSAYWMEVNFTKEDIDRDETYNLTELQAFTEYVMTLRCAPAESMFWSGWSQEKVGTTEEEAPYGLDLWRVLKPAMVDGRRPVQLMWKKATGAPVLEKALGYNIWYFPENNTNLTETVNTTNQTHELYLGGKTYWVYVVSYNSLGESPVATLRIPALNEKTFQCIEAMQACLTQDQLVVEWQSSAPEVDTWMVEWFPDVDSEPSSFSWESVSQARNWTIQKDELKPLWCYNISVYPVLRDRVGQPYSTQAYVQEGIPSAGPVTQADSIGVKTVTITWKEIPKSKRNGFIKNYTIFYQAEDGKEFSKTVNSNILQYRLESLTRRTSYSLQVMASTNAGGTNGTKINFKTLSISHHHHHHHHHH


Key:
Canine IL-31RA ECD-10His [1] = biological target: T1, Canine IL-31RA ECD-10His; experiment: BLI (Octet); end of the range tied to 85C10 by Table 2
Method: (§1) All kinetics measurements were performed by Octet HTX using SA biosensors and Data Acquisition 12.0 software. A biotin-labeled antigen (canine IL-31RA) was loaded onto the pre-rehydrated SA biosensors for 120s at a concentration of 1 μg/mL. Next, the biosensors were placed into Octet Kinetics Buffer (PBS+0.02% Tween 20, 0.1% BSA) for the blocking phase for 120s. Then, for the association phase, antigen loaded biosensors were placed into 2-fold serial dilutions from 100 nM down to 3.13 nM of anti-IL-31RA monoclonal antibody in Octet Kinetics Buffer for 300s. The last well was buffer alone and that sensor was used for reference sensor subtraction. Finally, the biosensors were placed into Octet Kinetics Buffer for the dissociation phase for 300s. Analysis was performed using Data Analysis 12.0 software and curves were fitted using a 1:1 binding model.

Canine IL-31RA ECD-10His [2] = biological target: T1, Canine IL-31RA ECD-10His; experiment: BLI (Octet HTX), biotin-labeled canine IL-31RA on SA biosensors, 1:1 fit
Method: These constants reflect the binding affinity of the individual monoclonal antibodies for canine IL-31 RA.
as §1

[3] = biological target: T2, canine IL-31 receptor complex (IL-31RA and OSMR) on Ba/f3-OI cells (canine); experiment: cell-based or functional assay
[4] = biological target: T2, canine IL-31 receptor complex (IL-31RA …); experiment: cell-based or functional assay; remark: listed apart in the source
[5] = biological target: T2, canine IL-31 receptor complex (IL-31RA …); experiment: cell-based or functional assay; remark: listed apart in the source
Canine IL-31RA ECD-10His [6] = biological target: T1, Canine IL-31RA ECD-10His; experiment: BLI (Octet), biotin-labeled canine IL-31RA on SA biosensors
Method: as §1
Two of the top blocking antibodies: 51F8 and 218D9, had KDs of about 0.2 nM and about 0.07 nM respectively (see, Table 5B below).

Canine IL-31RA ECD-10His [7] = biological target: T1, Canine IL-31RA ECD-10His; experiment: ELISA on coated canine IL-31RA, anti-canine IgG Fc-HRP (Example 11), the unit is that of the x axis 'Ab Log Conc. (ng/mL)'
Method: 1. Coat 200 ng/well of IL-31RA on an immunoplate and incubate the plate at 4° C. overnight. [0257] 2. Wash the plate 3 times with phosphate buffered saline (PBS) containing 0.05% Tween 20 (PBST). […] 3. Block the plate with 0.5% bovine serum albumin (BSA) in PBS for 45-60 min at room temperature. [0259] 4. Wash the plate 3 times with PBST. [0260] 5. Three-fold dilute the caninized antibody in each column or row of dilution plate starting at 0.3 μg/mL. [0261] 6. Transfer the diluted caninized antibody into each column or row of the immunoplate, and incubate the plate for 45-60 min at room temperature. [0262] 7. Wash the plate 3 times with PBST. [0263] 8. Add 1:4000 diluted horseradish peroxidase labeled anti-canine IgG Fc into each well of the plate, and then incubate the plate for 45-60 min at room temperature. [0264] 9. Wash the plate 3 times with PBST. [0265] 10. Add 3,3′,5,5′-tetramethylbenzidine (TMB) Substrate into each well of the plate, and incubate the plate for 10 to 15 min at room temperature to develop the color. [0266] 11. Add 100 μL 1.5 M phosphoric acid into each well to stop the reaction. Read plate at 450 nm with 540 nm reference wavelength.
As depicted in FIGS. 7A-7E, the caninized antibodies were tested for their reactivity to canine IL-31RA.

Canine IL-31RA ECD-10His [8] = biological target: T1, Canine IL-31RA ECD-10His; experiment: BLI (Octet); end of the range tied to 224G3 by Table 2
Method: as §1

Binder | Kd (Canine IL-31RA ECD-10His [1]) [nM] | Kd (Canine IL-31RA ECD-10His [2]) [nM] | koff (Canine IL-31RA ECD-10His [2]) [s⁻¹] | kon (Canine IL-31RA ECD-10His [2]) [M⁻¹ s⁻¹] | IC50 (read off the curve): inhibition of IL-31 mediated STAT-3 phosphorylation in Ba/f3-OI cells [3] [ng/mL] | IC50, inhibition of IL-31 mediated STAT-3 phosphorylation in Ba/f3-OI cells [4] [nM] | IC50: inhibition of IL-31 mediated STAT-3 phosphorylation in Ba/f3-OI cells (AlphaLISA p-STAT3), the unit is that of the x axis 'Antibody Log Conc. (nM)' [5] [nM] | Kd (Canine IL-31RA ECD-10His [6]) [nM] | koff (Canine IL-31RA ECD-10His [6]) [s⁻¹] | kon (Canine IL-31RA ECD-10His [6]) [M⁻¹ s⁻¹] | EC50 (Canine IL-31RA ECD-10His [7]) [ng/mL] | Kd (Canine IL-31RA ECD-10His [8]) [nM]
85C10 (antibody, V domains shown, Mouse monoclonal antibody from a hybridoma; also called mouse mAb 85C10) VH: EFQLQQSGPELVKPGASVKISCKASGYSFTDYSINWVKQSNGKSLEWIGVINPNYGTSSHNQKFKGKATMTVDQSSSTAYMQLNSLTSEDSAVYYCARALDDYYFYWYFDVWGIGTTVTVSS VL: DVVMTQTPLSLPVSLGDQASISCRSSQSLVHTNGNTYLHWYLQKPGQSPKLLIYKVSNRFSGVPDRFSGSGSGTDFTLKISRVEAEDLGVYFCSQTTHVPLTFGAGTKLELK | 0.85 | 0.851 | 0.000363 | 427000 |  |  |  |  |  |  |  | 
209G5 (antibody, V domains shown, Mouse monoclonal antibody from a hybridoma; also called mouse mAb 209G5) VH: EVQLQQSVAELVRPGASVKLSCTASGFNIKNTYMHWVKERPEQGLEWIGRIDPANGNSKYAPKFQGKATITTDTSSNTAYLQLSSLTSEDTAIYYCARYYYVSSHFDVWGTGTTVTVSS VL: SIVMTQTPKFLLVSAGDRVTITCKASQSVTNDVTWYQQKPGQSPKLLIYYASNRYTGVPDRFTGSGYGTDFTFTISTVQAEDLAVYFCQQDYSSPFTFGSGTKLEIK |  | 0.131 | 4.87e-05 | 370000 | ~2000 |  |  |  |  |  |  | 
Chimeric 218D9 (antibody, V domains shown, canine constant regions not specified; also called mouse-canine chimeric 218D9 antibody) VH: QVTLKESGPGILQPSQTLSLTCSFSGFSLSTFGRGVGWIRQPSGKGLDWLTHIWWDDDKYYNPALKSRLTISKDTSKNQVFLKIANVDTADTATYYCARIAGGLRRAPYAMDSWGQGTSVTVSS VL: DIQMTQSPASLSVSVGETVTITCRASENIYSSLAWYQQKQGKSPQLLVYAATNLADGVPSRFSGSGSGTQYSLKINSLQSEDSGNYYCQHFRDTPPTFGGGTKLEIK |  |  |  |  |  | ~2.2 | 2.24 | 0.0698 | 4.63e-05 | 664000 | 3.15 | 
218D9 (antibody, V domains shown, Mouse monoclonal antibody from a hybridoma; also called mouse mAb 218D9) VH: QVTLKESGPGILQPSQTLSLTCSFSGFSLSTFGRGVGWIRQPSGKGLDWLTHIWWDDDKYYNPALKSRLTISKDTSKNQVFLKIANVDTADTATYYCARIAGGLRRAPYAMDSWGQGTSVTVSS VL: DIQMTQSPASLSVSVGETVTITCRASENIYSSLAWYQQKQGKSPQLLVYAATNLADGVPSRFSGSGSGTQYSLKINSLQSEDSGNYYCQHFRDTPPTFGGGTKLEIK |  | 0.0698 | 4.63e-05 | 664000 | ~2000 |  |  |  |  |  |  | 
224G3 (antibody, V domains shown, Mouse monoclonal antibody from a hybridoma; also called mouse mAb 224G3) VH: EVQLVESGGDLVKPGGSLKLSCAASGFTFSSYGMSWVRQTPDKRLEWVATISNGGSYTYYPDSVKGRFTISRDNAKNTLYMQMSSLKSEDTAMYYCARNEPPDYWGQGTSVTVSS VL: QIVLTQSPAIMSASLGERVTMTCTASSSVGSSYLHWYQQKPGSSPKLWIYDTSNLASGVPVRFSGSGSGTSYSLTISSMEAEDAATYYCHQYHRSPYTFGGGTKLEIK |  | 0.000964 | 1.08e-06 | 1.12e+06 |  |  |  |  |  |  |  | 0.001
c218D9VH3VL2 (antibody, V domains shown, Caninized antibody; chains tied by name to c218D9VH3-cIgGBm and c218D9VL2-cCK; also called c218D9VH3L2) VH: EVTLQESGPGLVKPSQTLSLTCSFSGFSLSTFGRGVGWIRQRPGRGLEWMGHIWWDDDKYYNPALKSRLSITKDTAKNQFSLQLSSMTTEDTAVYYCARIAGGLRRAPYAMDSWGQGTLVTVSS VL: DIVMTQTPLSLSVSPGETASISCRASENIYSSLAWFRQKPGQSPQLLIYAATNLADGVPDRFSGSGSGTDFTLRISRVEADDTGVYYCQHFRDTPPTFGQGTKLEIKR |  |  |  |  |  | ~230 | 226 | 0.528 | 0.000338 | 641000 | 4.29 | 
c218D9VH4VL3 (antibody, V domains shown, Caninized antibody; chains tied by name to c218D9VH4-cIgGBm and c218D9VL3-cCK; also called c218D9VH4L3) VH: EVTLQESGPGLVKPSQTLSLTCSFSGFSLSTFGRGVGWIRQRPGRGLEWMGHIWWDDDKYYNPALKSRLSITKDTAKNQVFLQLSSMTTEDTAVYYCARIAGGLRRAPYAMDSWGQGTLVTVSS VL: DIVMTQTPLSLSVSPGETASISCRASENIYSSLAWFRQKPGQSPQLLVYAATNLADGVPDRFSGSGSGTDYTLRISRVEADDTGVYYCQHFRDTPPTFGQGTKLEIKR |  |  |  |  |  | ~2.9 | 2.5 | 0.0447 | 2.69e-05 | 601000 | 3.58 | 
c218D9VH4VL2 (antibody, V domains shown, Caninized antibody; chains tied by name to c218D9VH4-cIgGBm and c218D9VL2-cCK; also called c218D9VH4L2) VH: EVTLQESGPGLVKPSQTLSLTCSFSGFSLSTFGRGVGWIRQRPGRGLEWMGHIWWDDDKYYNPALKSRLSITKDTAKNQVFLQLSSMTTEDTAVYYCARIAGGLRRAPYAMDSWGQGTLVTVSS VL: DIVMTQTPLSLSVSPGETASISCRASENIYSSLAWFRQKPGQSPQLLIYAATNLADGVPDRFSGSGSGTDFTLRISRVEADDTGVYYCQHFRDTPPTFGQGTKLEIKR |  |  |  |  |  | ~8.3 | 8.27 | 0.305 | 0.000165 | 541000 | 4.1 | 
c218D9VH3VL3 (antibody, V domains shown, Caninized antibody; chains tied by name to c218D9VH3-cIgGBm and c218D9VL3-cCK; also called c218D9VH3L3) VH: EVTLQESGPGLVKPSQTLSLTCSFSGFSLSTFGRGVGWIRQRPGRGLEWMGHIWWDDDKYYNPALKSRLSITKDTAKNQFSLQLSSMTTEDTAVYYCARIAGGLRRAPYAMDSWGQGTLVTVSS VL: DIVMTQTPLSLSVSPGETASISCRASENIYSSLAWFRQKPGQSPQLLVYAATNLADGVPDRFSGSGSGTDYTLRISRVEADDTGVYYCQHFRDTPPTFGQGTKLEIKR |  |  |  |  |  | ~2.5 | 2.97 | 0.0416 | 2.75e-05 | 661000 | 3.22 | 
